Data published in patent US20250154198A1, “PEPTIDE INHIBITORS OF INTERLEUKIN-23 RECEPTOR” (Zealand Pharma A/S, priority 2021, published 2025).
Like-named read-outs stand apart in the source and are kept apart here. *1 amine or outer side, *2 acyl side, *3 side chain or, on linkers, in order; H or OH if unused. Bridges are numbered along the chain shown (N, C = ends). Primed or numbered codes have the meaning given here. Where no end group is shown, it is not given here. [ ]: non-standard residue; d: D form. 4‑Aminomethyl‑phenylacetyl = 4-aminomethyl-phenylacetyl unit, its amine closes the lactam, O=C(Cc1ccc(CN[*:1])cc1)[*:2]; 1,3‑dibromopropan‑2‑one(3) = linker giving 1,3-dithio-propan-2-one bridge -SCH2C(=O)CH2S- between Cys; 4‑Aminomethyl‑phenylacetyl″ = N-terminal cap residue, O=C(Cc1ccc(CN[*:1])cc1)[*:2]; 2Nal = N[C@@H](Cc1ccc2ccccc2c1)C(=O)O; AEF = NCCOc1ccc(C[C@H](N)C(=O)O)cc1; 3Pal = N[C@@H](Cc1cccnc1)C(=O)O; αMeL = CC(C)C[C@](C)(N)C(=O)O; CH2COCH2 = O=C(C[*:1])C[*:2]; αMeK = C[C@](N)(CCCCN)C(=O)O; 3Amb = NCc1cccc(C(=O)O)c1; Dab = NCC[C@H](N)C(=O)O

T1: Nluc-IL23R fusion protein (human, UniProt Q5VWK5 22-629)
T1 construct: range 22-629; Stably expressed in HEK293 cells; also called hIL-23R; human IL-23R fused to a Nanoluc luciferase enzyme; not shown: Nanoluc luciferase (Promega N1371 plasmid) at the N-terminus
T1 sequence (looked up): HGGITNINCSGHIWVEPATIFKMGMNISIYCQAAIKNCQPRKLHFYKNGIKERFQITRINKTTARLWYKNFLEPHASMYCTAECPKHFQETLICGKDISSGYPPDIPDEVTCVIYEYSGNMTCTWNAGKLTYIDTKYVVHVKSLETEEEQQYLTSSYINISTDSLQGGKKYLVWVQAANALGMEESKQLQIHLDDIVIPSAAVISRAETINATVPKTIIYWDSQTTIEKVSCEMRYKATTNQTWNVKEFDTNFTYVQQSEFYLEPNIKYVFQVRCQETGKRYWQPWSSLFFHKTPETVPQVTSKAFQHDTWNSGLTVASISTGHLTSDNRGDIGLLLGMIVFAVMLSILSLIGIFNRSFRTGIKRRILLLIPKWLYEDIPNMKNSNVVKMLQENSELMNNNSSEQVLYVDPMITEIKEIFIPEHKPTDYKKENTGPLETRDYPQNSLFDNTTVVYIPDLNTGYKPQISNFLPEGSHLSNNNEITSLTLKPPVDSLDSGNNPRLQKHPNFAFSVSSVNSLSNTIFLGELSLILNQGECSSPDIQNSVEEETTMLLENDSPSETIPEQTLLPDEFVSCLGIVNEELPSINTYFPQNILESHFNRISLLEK

T2: human IL-23R endogenously expressed on DB cells (CRL-2289) (human, UniProt Q5VWK5 24-629)
T2 sequence (looked up): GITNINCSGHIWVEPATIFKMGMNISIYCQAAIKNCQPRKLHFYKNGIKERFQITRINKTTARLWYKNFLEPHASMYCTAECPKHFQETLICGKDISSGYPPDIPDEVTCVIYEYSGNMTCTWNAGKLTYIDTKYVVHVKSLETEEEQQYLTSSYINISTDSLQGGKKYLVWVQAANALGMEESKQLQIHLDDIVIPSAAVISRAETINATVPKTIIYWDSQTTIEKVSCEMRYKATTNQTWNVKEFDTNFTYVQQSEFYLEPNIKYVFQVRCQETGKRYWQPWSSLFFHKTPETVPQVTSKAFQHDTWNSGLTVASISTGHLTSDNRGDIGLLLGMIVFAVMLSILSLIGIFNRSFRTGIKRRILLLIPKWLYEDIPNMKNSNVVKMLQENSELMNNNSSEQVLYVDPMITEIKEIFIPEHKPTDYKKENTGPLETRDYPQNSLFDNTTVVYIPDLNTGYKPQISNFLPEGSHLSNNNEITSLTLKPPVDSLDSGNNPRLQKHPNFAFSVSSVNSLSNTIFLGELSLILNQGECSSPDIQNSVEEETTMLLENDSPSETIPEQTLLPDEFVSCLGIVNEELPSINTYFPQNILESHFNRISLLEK


Columns and labels:
[1] = target: T1, Nluc-IL23R fusion protein; assay: BRET displacement of TAMRA-labelled peptide, Nluc-IL23R membranes
[2] = target: T2, human IL-23R endogenously expressed on …; assay: cell-based or functional assay
[3] = target: T1, Nluc-IL23R fusion protein; assay: BRET displacement of TAMRA-labelled peptide, Nluc-IL23R membranes; remark: listed apart in the source

Binder	Ki [1] [nM]	IC50 (pSTAT3) [2]	Ki [3] [nM]
[4‑Aminomethyl‑phenylacetyl]SEWQ[Dab][AEF][2Nal][αMeL]E[Dab]-NH2 (lactam N-10, 3-6) [Compound 125]	0.599	21.2 nM	–
[4‑Aminomethyl‑phenylacetyl]SCWQC[AEF][2Nal][αMeL]ER-NH2 (lactam N-10; linker 3-6 via CH2COCH2; SMILES CC(C)C[C@]1(C)NC(=O)[C@H](Cc2ccc3ccccc3c2)NC(=O)[C@H](Cc2ccc(OCCN)cc2)NC(=O)[C@@H]2CSCC(=O)CSC[C@H](NC(=O)[C@H](CO)NC(=O)Cc3ccc(cc3)CNC(=O)CC[C@@H](C(=O)N[C@@H](CCCNC(=N)N)C(N)=O)NC1=O)C(=O)N[C@@H](Cc1c[nH]c3ccccc13)C(=O)N[C@@H](CCC(N)=O)C(=O)N2) [Compound 52]	0.0475	7.85 nM	–
[4‑Aminomethyl‑phenylacetyl]SCWQC[AEF][2Nal][αMeL]E[dR]-NH2 (lactam (positions not given here); linker 3-6 via CH2COCH2; not fully specified (bridges); printed as [4-Aminomethyl-phenylacetyl](1c)*SC(2a)WQC(2a)[Y(2-aminoethoxy)][2-Nal][2-Me-Leu]E(1c)[{d}R]-[NH2]) [Compound 80]	0.15	10.5 nM	–
[3Amb]SCWQC[AEF][2Nal][αMeL]ER[3Pal]-NH2 (lactam (positions not given here); linker 3-6 via CH2COCH2; not fully specified (bridges); printed as [(3-Aminomethyl)benzoyl](1c)*SC(2a)WQC(2a)[Y(2-aminoethoxy)][2-Nal][2-Me-Leu]E(1c)R[3-(3-Pyridyl)-Ala]-[NH2]) [Compound 78]	0.0205	0.132 nM	–
[3Amb]SCWQC[AEF][2Nal][αMeL]E[dR]-NH2 (lactam N-10; linker 3-6 via CH2COCH2) [Compound 41]	2.31	29.4 nM	–
[4‑Aminomethyl‑phenylacetyl″]SEWQ[Dab][AEF][2Nal][αMeL]E[Dab][3Pal]-NH2 (lactam N-10, 3-6; SMILES CC(C)C[C@]1(C)NC(=O)[C@H](Cc2ccc3ccccc3c2)NC(=O)[C@H](Cc2ccc(OCCN)cc2)NC(=O)[C@@H]2CCNC(=O)CC[C@H](NC(=O)[C@H](CO)NC(=O)Cc3ccc(cc3)CNC(=O)CC[C@@H](C(=O)N[C@@H](CCN)C(=O)N[C@@H](Cc3cccnc3)C(N)=O)NC1=O)C(=O)N[C@@H](Cc1c[nH]c3ccccc13)C(=O)N[C@@H](CCC(N)=O)C(=O)N2) [Compound 122]	0.00541	27.7 pM	–
Ac-DESCWQCW[2Nal][αMeL]KENG-NH2 (lactam 2-11; linker 4-7 via CH2COCH2; SMILES CC(=O)N[C@@H](CC(=O)O)C(=O)N[C@H]1CCC(=O)NCCCC[C@@H](C(=O)N[C@@H](CCC(=O)O)C(=O)N[C@@H](CC(N)=O)C(=O)NCC(N)=O)NC(=O)[C@](C)(CC(C)C)NC(=O)[C@H](Cc2ccc3ccccc3c2)NC(=O)[C@H](Cc2c[nH]c3ccccc23)NC(=O)[C@@H]2CSCC(=O)CSC[C@H](NC(=O)[C@H](CO)NC1=O)C(=O)N[C@@H](Cc1c[nH]c3ccccc13)C(=O)N[C@@H](CCC(N)=O)C(=O)N2) [Compound 58]	–	597 nM	201
Ac-DESCWQCW[2Nal][αMeL]KNG-NH2 (lactam 2-11; linker 4-7 via CH2COCH2; SMILES CC(=O)N[C@@H](CC(=O)O)C(=O)N[C@H]1CCC(=O)NCCCC[C@@H](C(=O)N[C@@H](CC(N)=O)C(=O)NCC(N)=O)NC(=O)[C@](C)(CC(C)C)NC(=O)[C@H](Cc2ccc3ccccc3c2)NC(=O)[C@H](Cc2c[nH]c3ccccc23)NC(=O)[C@@H]2CSCC(=O)CSC[C@H](NC(=O)[C@H](CO)NC1=O)C(=O)N[C@@H](Cc1c[nH]c3ccccc13)C(=O)N[C@@H](CCC(N)=O)C(=O)N2) [Compound 59]	–	297 nM	139
Ac-DESCWQCW[2Nal][αMeL]KG-NH2 (lactam 2-11; linker 4-7 via CH2COCH2; SMILES CC(=O)N[C@@H](CC(=O)O)C(=O)N[C@H]1CCC(=O)NCCCC[C@@H](C(=O)NCC(N)=O)NC(=O)[C@](C)(CC(C)C)NC(=O)[C@H](Cc2ccc3ccccc3c2)NC(=O)[C@H](Cc2c[nH]c3ccccc23)NC(=O)[C@@H]2CSCC(=O)CSC[C@H](NC(=O)[C@H](CO)NC1=O)C(=O)N[C@@H](Cc1c[nH]c3ccccc13)C(=O)N[C@@H](CCC(N)=O)C(=O)N2) [Compound 60]	–	666 nM	212
[4‑Aminomethyl‑phenylacetyl]SCWQC[AEF][2Nal][αMeL]ES-NH2 (lactam (positions not given here); linker 3-6 via CH2COCH2; not fully specified (bridges); printed as [4-Aminomethyl-phenylacetyl](1c)*SC(2a)WQC(2a)[Y(2-aminoethoxy)][2-Nal][2-Me-Leu]E(1c)S-[NH2]) [Compound 81]	0.318	20.7 nM	–
Ac-DESCWQCW[2Nal][αMeK]KENG-NH2 (lactam 2-11; linker 4-7 via CH2COCH2; SMILES CC(=O)N[C@@H](CC(=O)O)C(=O)N[C@H]1CCC(=O)NCCCC[C@@H](C(=O)N[C@@H](CCC(=O)O)C(=O)N[C@@H](CC(N)=O)C(=O)NCC(N)=O)NC(=O)[C@](C)(CCCCN)NC(=O)[C@H](Cc2ccc3ccccc3c2)NC(=O)[C@H](Cc2c[nH]c3ccccc23)NC(=O)[C@@H]2CSCC(=O)CSC[C@H](NC(=O)[C@H](CO)NC1=O)C(=O)N[C@@H](Cc1c[nH]c3ccccc13)C(=O)N[C@@H](CCC(N)=O)C(=O)N2) [Compound 61]	–	> 1 µM	436
[4‑Aminomethyl‑phenylacetyl]SCWQC[AEF][2Nal][αMeL]E[Dab][3Pal]-NH2 (lactam N-10; linker 3-6 via 1,3‑dibromopropan‑2‑one(3)) [Compound 120]	0.00938	54.2 pM	–
DEQCWQCYWXKR (HELM PEPTIDE1{[ac].D.E.Q.C.W.Q.C.Y.W.[CC(C)C[C@](C)(N[*:1])C(=O)[*:2]].K.R.[am]}|CHEM1{[O=C(C[*:1])C[*:2]]}$PEPTIDE1,PEPTIDE1,3:R3-12:R3|PEPTIDE1,CHEM1,5:R3-1:R1|PEPTIDE1,CHEM1,8:R3-1:R2$$$V2.0; SMILES CC(=O)N[C@@H](CC(=O)O)C(=O)N[C@H]1CCC(=O)NCCCC[C@@H](C(=O)N[C@@H](CCCNC(=N)N)C(N)=O)NC(=O)[C@](C)(CC(C)C)NC(=O)[C@H](Cc2c[nH]c3ccccc23)NC(=O)[C@H](Cc2ccc(O)cc2)NC(=O)[C@@H]2CSCC(=O)CSC[C@H](NC(=O)[C@H](CCC(N)=O)NC1=O)C(=O)N[C@@H](Cc1c[nH]c3ccccc13)C(=O)N[C@@H](CCC(N)=O)C(=O)N2) [Compound 55]	–	> 1 µM	272
[4‑Aminomethyl‑phenylacetyl]SCWQC[AEF][2Nal][αMeL]E[Dab]-NH2 (lactam (positions not given here); linker 3-6 via CH2COCH2; not fully specified (bridges); printed as [4-Aminomethyl-phenylacetyl](1c)*SC(2a)WQC(2a)[Y(2-aminoethoxy)][2-Nal][2-Me-Leu]E(1c)[Dab]-[NH2]) [Compound 82]	0.0665	11.1 nM	–
